These results are taken from patent publication US20120219567A1 (Biogen, published 2012).

First the molecules themselves.
B1: human NgR mutant 158, 160 (mutated to alanine) (receptor)
chain: CPGACVCYNEPKVTTSCPQQGLQAVPVGIPAASQRIFLHGNRISHVPAASFRACRNLTILWLHSNVLARIDAAAFTGLALLEQLDLSDNAQLRSVDPATFHGLGRLHTLHLDRCGLQELGPGLFRGLAALQALALQDNALQALPDDTFRDLGNLTHLFLHGNRISSVPERAFRGLHSLDRLLLHQNRVAHVHPHAFRDLGRLMTLYLFANNLSALPTEALAPLRALQYLRLNDNPWVCDCRARPLWAWLQKFRGSSSEVPCSLPQRLAGRDLKRLAANDLQGCAVATGPYHPIWTGRATDEEPLGLPKCCQPDAADKASVLEPGRPASAGNALKGRVPPGDSPPGNGSGPRHINDSPFGTLPGSAEPPLTAVRPEGSEPPGFPTSGPRRRPGCSRKNRTRSHCRLGQAGSGGGGTGDSE
B2: human NgR mutant 189, 191, 211, 213 (mutated to alanine) (receptor)
chain: CPGACVCYNEPKVTTSCPQQGLQAVPVGIPAASQRIFLHGNRISHVPAASFRACRNLTILWLHSNVLARIDAAAFTGLALLEQLDLSDNAQLRSVDPATFHGLGRLHTLHLDRCGLQELGPGLFRGLAALQYLYLQDNALQALPDDTFRDLGNLTHLFLHGNAIASVPERAFRGLHSLDRLLLHANAVAHVHPHAFRDLGRLMTLYLFANNLSALPTEALAPLRALQYLRLNDNPWVCDCRARPLWAWLQKFRGSSSEVPCSLPQRLAGRDLKRLAANDLQGCAVATGPYHPIWTGRATDEEPLGLPKCCQPDAADKASVLEPGRPASAGNALKGRVPPGDSPPGNGSGPRHINDSPFGTLPGSAEPPLTAVRPEGSEPPGFPTSGPRRRPGCSRKNRTRSHCRLGQAGSGGGGTGDSE
B3: human NgR mutant 211, 213 (mutated to alanine) (receptor)
chain: CPGACVCYNEPKVTTSCPQQGLQAVPVGIPAASQRIFLHGNRISHVPAASFRACRNLTILWLHSNVLARIDAAAFTGLALLEQLDLSDNAQLRSVDPATFHGLGRLHTLHLDRCGLQELGPGLFRGLAALQYLYLQDNALQALPDDTFRDLGNLTHLFLHGNRISSVPERAFRGLHSLDRLLLHANAVAHVHPHAFRDLGRLMTLYLFANNLSALPTEALAPLRALQYLRLNDNPWVCDCRARPLWAWLQKFRGSSSEVPCSLPQRLAGRDLKRLAANDLQGCAVATGPYHPIWTGRATDEEPLGLPKCCQPDAADKASVLEPGRPASAGNALKGRVPPGDSPPGNGSGPRHINDSPFGTLPGSAEPPLTAVRPEGSEPPGFPTSGPRRRPGCSRKNRTRSHCRLGQAGSGGGGTGDSE
B4: human NgR mutant 111, 113, 114 (mutated to alanine) (receptor)
chain: CPGACVCYNEPKVTTSCPQQGLQAVPVGIPAASQRIFLHGNRISHVPAASFRACRNLTILWLHSNVLARIDAAAFTGLALLEQLALAANAQLRSVDPATFHGLGRLHTLHLDRCGLQELGPGLFRGLAALQYLYLQDNALQALPDDTFRDLGNLTHLFLHGNRISSVPERAFRGLHSLDRLLLHQNRVAHVHPHAFRDLGRLMTLYLFANNLSALPTEALAPLRALQYLRLNDNPWVCDCRARPLWAWLQKFRGSSSEVPCSLPQRLAGRDLKRLAANDLQGCAVATGPYHPIWTGRATDEEPLGLPKCCQPDAADKASVLEPGRPASAGNALKGRVPPGDSPPGNGSGPRHINDSPFGTLPGSAEPPLTAVRPEGSEPPGFPTSGPRRRPGCSRKNRTRSHCRLGQAGSGGGGTGDSE
B5: human NgR mutant 111, 113, 114, 138 (mutated to alanine) (receptor)
chain: CPGACVCYNEPKVTTSCPQQGLQAVPVGIPAASQRIFLHGNRISHVPAASFRACRNLTILWLHSNVLARIDAAAFTGLALLEQLALAANAQLRSVDPATFHGLGRLHTLHLARCGLQELGPGLFRGLAALQYLYLQDNALQALPDDTFRDLGNLTHLFLHGNRISSVPERAFRGLHSLDRLLLHQNRVAHVHPHAFRDLGRLMTLYLFANNLSALPTEALAPLRALQYLRLNDNPWVCDCRARPLWAWLQKFRGSSSEVPCSLPQRLAGRDLKRLAANDLQGCAVATGPYHPIWTGRATDEEPLGLPKCCQPDAADKASVLEPGRPASAGNALKGRVPPGDSPPGNGSGPRHINDSPFGTLPGSAEPPLTAVRPEGSEPPGFPTSGPRRRPGCSRKNRTRSHCRLGQAGSGGGGTGDSE
B6: human NgR mutant 182, 186, 158, 160 (mutated to alanine) (receptor)
chain: CPGACVCYNEPKVTTSCPQQGLQAVPVGIPAASQRIFLHGNRISHVPAASFRACRNLTILWLHSNVLARIDAAAFTGLALLEQLDLSDNAQLRSVDPATFHGLGRLHTLHLDRCGLQELGPGLFRGLAALQALALQDNALQALPDDTFRDLGNLTALFLAGNRISSVPERAFRGLHSLDRLLLHQNRVAHVHPHAFRDLGRLMTLYLFANNLSALPTEALAPLRALQYLRLNDNPWVCDCRARPLWAWLQKFRGSSSEVPCSLPQRLAGRDLKRLAANDLQGCAVATGPYHPIWTGRATDEEPLGLPKCCQPDAADKASVLEPGRPASAGNALKGRVPPGDSPPGNGSGPRHINDSPFGTLPGSAEPPLTAVRPEGSEPPGFPTSGPRRRPGCSRKNRTRSHCRLGQAGSGGGGTGDSE
B7: human NgR mutant 232, 234 (mutated to alanine) (receptor)
chain: CPGACVCYNEPKVTTSCPQQGLQAVPVGIPAASQRIFLHGNRISHVPAASFRACRNLTILWLHSNVLARIDAAAFTGLALLEQLDLSDNAQLRSVDPATFHGLGRLHTLHLDRCGLQELGPGLFRGLAALQYLYLQDNALQALPDDTFRDLGNLTHLFLHGNRISSVPERAFRGLHSLDRLLLHQNRVAHVHPHAFRDLGRLMTLALAANNLSALPTEALAPLRALQYLRLNDNPWVCDCRARPLWAWLQKFRGSSSEVPCSLPQRLAGRDLKRLAANDLQGCAVATGPYHPIWTGRATDEEPLGLPKCCQPDAADKASVLEPGRPASAGNALKGRVPPGDSPPGNGSGPRHINDSPFGTLPGSAEPPLTAVRPEGSEPPGFPTSGPRRRPGCSRKNRTRSHCRLGQAGSGGGGTGDSE
B8: human NgR mutant 182, 186, 210 (mutated to alanine) (receptor)
chain: CPGACVCYNEPKVTTSCPQQGLQAVPVGIPAASQRIFLHGNRISHVPAASFRACRNLTILWLHSNVLARIDAAAFTGLALLEQLDLSDNAQLRSVDPATFHGLGRLHTLHLDRCGLQELGPGLFRGLAALQYLYLQDNALQALPDDTFRDLGNLTALFLAGNRISSVPERAFRGLHSLDRLLLAQNRVAHVHPHAFRDLGRLMTLYLFANNLSALPTEALAPLRALQYLRLNDNPWVCDCRARPLWAWLQKFRGSSSEVPCSLPQRLAGRDLKRLAANDLQGCAVATGPYHPIWTGRATDEEPLGLPKCCQPDAADKASVLEPGRPASAGNALKGRVPPGDSPPGNGSGPRHINDSPFGTLPGSAEPPLTAVRPEGSEPPGFPTSGPRRRPGCSRKNRTRSHCRLGQAGSGGGGTGDSE
B9: human NgR mutant 182, 186 (mutated to alanine) (receptor)
chain: CPGACVCYNEPKVTTSCPQQGLQAVPVGIPAASQRIFLHGNRISHVPAASFRACRNLTILWLHSNVLARIDAAAFTGLALLEQLDLSDNAQLRSVDPATFHGLGRLHTLHLDRCGLQELGPGLFRGLAALQYLYLQDNALQALPDDTFRDLGNLTALFLAGNRISSVPERAFRGLHSLDRLLLHQNRVAHVHPHAFRDLGRLMTLYLFANNLSALPTEALAPLRALQYLRLNDNPWVCDCRARPLWAWLQKFRGSSSEVPCSLPQRLAGRDLKRLAANDLQGCAVATGPYHPIWTGRATDEEPLGLPKCCQPDAADKASVLEPGRPASAGNALKGRVPPGDSPPGNGSGPRHINDSPFGTLPGSAEPPLTAVRPEGSEPPGFPTSGPRRRPGCSRKNRTRSHCRLGQAGSGGGGTGDSE
B10: human NgR mutant 211, 213, 237, 256, 259, 284 (mutated to alanine) (receptor)
chain: CPGACVCYNEPKVTTSCPQQGLQAVPVGIPAASQRIFLHGNRISHVPAASFRACRNLTILWLHSNVLARIDAAAFTGLALLEQLDLSDNAQLRSVDPATFHGLGRLHTLHLDRCGLQELGPGLFRGLAALQYLYLQDNALQALPDDTFRDLGNLTHLFLHGNRISSVPERAFRGLHSLDRLLLHANAVAHVHPHAFRDLGRLMTLYLFANALSALPTEALAPLRALQYLALNANPWVCDCRARPLWAWLQKFRGSSSAVPCSLPQRLAGRDLKRLAANDLQGCAVATGPYHPIWTGRATDEEPLGLPKCCQPDAADKASVLEPGRPASAGNALKGRVPPGDSPPGNGSGPRHINDSPFGTLPGSAEPPLTAVRPEGSEPPGFPTSGPRRRPGCSRKNRTRSHCRLGQAGSGGGGTGDSE
B11: human NgR mutant 171, 172, 175, 176, 196, 199, 220, 223, 224, 250 (mutated to alanine) (receptor)
chain: CPGACVCYNEPKVTTSCPQQGLQAVPVGIPAASQRIFLHGNRISHVPAASFRACRNLTILWLHSNVLARIDAAAFTGLALLEQLDLSDNAQLRSVDPATFHGLGRLHTLHLDRCGLQELGPGLFRGLAALQYLYLQDNALQALPAATFAALGNLTHLFLHGNRISSVPEAAFAGLHSLDRLLLHQNRVAHVHPAAFAALGRLMTLYLFANNLSALPTEALAPLAALQYLRLNDNPWVCDCRARPLWAWLQKFRGSSSEVPCSLPQRLAGRDLKRLAANDLQGCAVATGPYHPIWTGRATDEEPLGLPKCCQPDAADKASVLEPGRPASAGNALKGRVPPGDSPPGNGSGPRHINDSPFGTLPGSAEPPLTAVRPEGSEPPGFPTSGPRRRPGCSRKNRTRSHCRLGQAGSGGGGTGDSE
notes: Label runs over two printed rows (r20c1 and r21c1)

The target in the assay is T1, AP-Nogo-66 (UniProt Q9NQC3 1055-1120).
T1 construct: domain: Nogo-66; also called AP-Ng-66; Nogo-66 ligand; not shown: alkaline phosphatase (AP) moiety
T1 sequence (looked up): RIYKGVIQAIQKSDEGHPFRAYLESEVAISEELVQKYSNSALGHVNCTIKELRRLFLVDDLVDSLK
The assay can be described thus: AP-ligand binding to transfected COS-7 cells. As to the method: In order to probe the NgR domains that interact with Aβ and Nogo-66, a strategy based on the crystal structure of NgR was employed. A number of human NgR surface-accessible residues were mutated to Ala either individually or as groups of adjacent residues (Table 3), and resultant ligand binding characteristics were assessed. The ligand concentrations were AP, 30 nM, AP-Nogo-66, 5 nM, AP-Aβ(1-28), 50 nM. NgR mutagenesis has been previously described. Hu et al., J Neurosci 25:5298-5304 (2005); Fournier et al., J Neurosci 23:1416-1423 (2003). The expression of each mutant NgR protein was verified by immunohistochemical detection at the surface of cells transfected with expression vector (FIG. 2a). Bound AP was stained and measured using NIH image software. Mutants of human NgR were detected on the surface of transfected COS-7 immunofluorescently. For each of the mutants with altered binding characteristics, expression of immunoreactive NgR protein with electrophoretic mobility similar to wild type was also confirmed by immunoblot (FIG. 2c). Whole COS-7 cell lysates expressing NgR mutants were subjected to SDS-PAGE and blotted with anti-NgR antibodies. The mobility of each mutant was indistinguishable from wild type NgR, except for the mutations in N-linked glycosylation sites (N82 and N179). The binding of both AP-Aβ(1-28) and AP-Nogo-66 ligands to cells expressing this collection of NgR mutant proteins was assessed at concentrations equal to the predetermined Kd's of the ligands (FIG. 2b, d).
Regarding B1, the binding result is on record as “no binding (tested: 5 nM)”.

As for B2, the binding result was “no binding (tested: 5 nM)”. With B3 the entry was “no binding (tested: 5 nM)”; with B4, “no binding (tested: 5 nM)”.

As to B5, the binding result was “no binding (tested: 5 nM)”. With B6 the entry was “no binding (tested: 5 nM)”; with B7, “no binding (tested: 5 nM)”; with B8, “no binding (tested: 5 nM)”. On to B9, for which the binding result is listed as “no binding (tested: 5 nM)”. As for B10, the binding result was “no binding (tested: 5 nM)”. With B11 the entry was “no binding (tested: 5 nM)”.
